According to US12180485B2, “Repressible control of gene expression” (TRUSTEES OF BOSTON UNIVERSITY, priority 2020, dated 2024):
“Also recorded” adds a separate entry of the source.

B1: SEQ ID NO: 797: inducible system polypeptide, probably Table 20 (GID-GAI) (protein)
chain: MLDLASLILIEKKKSFAKGMGVKSTLVSGSKVYMTTFAEGSDARLEKIVEGDSIRSVNEGEAFSAEMADKNAGYKIGNAKFSHPKGYAVVANNPLYTGPVQQDMLGLKETLEKRYFGESADGNDNICIQVIHNILDIEKILAEYITNAAYAVNNISGLDKDIIGFGKFSTVYTYDEFKDPEHHRAAFNNNDKLINAIKAQYDEFDNFLDNPRLGYFGQAFFSKEGRNYIINYGNECYDILALLSGLRHWVVHNNEEESRISRTWLYNLDKNLDNEYISTLNYLYDRITNELTNSFSKNSAANVNYIAETLGINPAEFAEQYFRFSIMKEQKNLGFNITKLREVMLDRKDMSEIRKNHKVFDSIRTKVYTMMDFVIYRYYIEEDAKVAAANKSLPDNEKSLSEKDIFVINLRGSFNDDQKDALYYDEANRIWRKLENIMHNIKEFRGNKTREYKKKDAPRLPRILPAGRDVSAFSKLMYALTMFLDGKEINDLLTTLINKFDNIQSFLKVMPLIGVNAKFVEEYAFFKDSAKIADELRLIKSFARMGEPIADARRAMYIDAIRILGTNLSGGSGSGSSGGSGTMAASDEVNLIESRTVVPLNTWVLISNFKVAYNILRRPDGTFNRHLAEYLDRKVTANANPVDGVFSFDVLIDRRINLLSRVYRPAYADQEQPPSILDLEKPVDGDIVPVILFFHGGSFAHSSANSAIYDTLCRRLVGLCKCVVVSVNYRRAPENPYPCAYDDGWIALNWVNSRSWLKSKKDSKVHIFLAGDSSGGNIAHNVALRAGESGIDVLGNILLNPMFGGNERTESEKSLDGKYFVTVRDRDWYWKAFLPEGEDREHPACNPFSPRGKSLEGVSFPKSLVVVAGLDLIRDWQLAYAEGLKKAGQEVKLMHLEKATVGFYLLPNNNHFHNVMDEISAFVNAECLDLASLIL
B2: 559/560: RfxCas13d split between residues 559/560; N and C fragments plain or fused to CID domains (protein)
chain 1: IEKKKSFAKGMGVKSTLVSGSKVYMTTFAEGSDARLEKIVEGDSIRSVNEGEAFSAEMADKNAGYKIGNAKFSHPKGYAVVANNPLYTGPVQQDMLGLKETLEKRYFGESADGNDNICIQVIHNILDIEKILAEYITNAAYAVNNISGLDKDIIGFGKFSTVYTYDEFKDPEHHRAAFNNNDKLINAIKAQYDEFDNFLDNPRLGYFGQAFFSKEGRNYIINYGNECYDILALLSGLRHWVVHNNEEESRISRTWLYNLDKNLDNEYISTLNYLYDRITNELTNSFSKNSAANVNYIAETLGINPAEFAEQYFRFSIMKEQKNLGFNITKLREVMLDRKDMSEIRKNHKVFDSIRTKVYTMMDFVIYRYYIEEDAKVAAANKSLPDNEKSLSEKDIFVINLRGSFNDDQKDALYYDEANRIWRKLENIMHNIKEFRGNKTREYKKKDAPRLPRILPAGRDVSAFSKLMYALTMFLDGKEINDLLTTLINKFDNIQSFLKVMPLIGVNAKFVEEYAFFKDSAKIADELRLIKSFARMGEPIADARRAMYIDAIRILGTNL
chain 2: SYDELKALADTFSLDENGNKLKKGKHGMRNFIINNVISNKRFHYLIRYGDPAHLHEIAKNEAVVKFVLGRIADIQKKQGQNGKNQIDRYYETCIGKDKGKSVSEKVDALTKIITGMNYDQFDKKRSVIEDTGRENAEREKFKKIISLYLTVIYHILKNIVNINARYVIGFHCVERDAQLYKEKGYDINLKKLEEKGFSSVTKLCAGIDETAPDKRKDVEKEMAERAKESIDSLESANPKLYANYIKYSDEKKAEEFTRQINREKAKTALNAYLRNTKWNVIIREDLLRIDNKTCTLFRNKAVHLEVARYVHAYINDIAEVNSYFQLYHYIMQRIIMNERYEKSSGKVSEYFDAVNDEKKYNDRLLKLLCVPFGYCIPRFKNLSIEALFDRNEAAKFDKEKKKVSGNS
B3: 655/656: RfxCas13d split pair at 655/656, plain or fused to CID domains (protein)
chain 1: IEKKKSFAKGMGVKSTLVSGSKVYMTTFAEGSDARLEKIVEGDSIRSVNEGEAFSAEMADKNAGYKIGNAKFSHPKGYAVVANNPLYTGPVQQDMLGLKETLEKRYFGESADGNDNICIQVIHNILDIEKILAEYITNAAYAVNNISGLDKDIIGFGKFSTVYTYDEFKDPEHHRAAFNNNDKLINAIKAQYDEFDNFLDNPRLGYFGQAFFSKEGRNYIINYGNECYDILALLSGLRHWVVHNNEEESRISRTWLYNLDKNLDNEYISTLNYLYDRITNELTNSFSKNSAANVNYIAETLGINPAEFAEQYFRFSIMKEQKNLGFNITKLREVMLDRKDMSEIRKNHKVFDSIRTKVYTMMDFVIYRYYIEEDAKVAAANKSLPDNEKSLSEKDIFVINLRGSFNDDQKDALYYDEANRIWRKLENIMHNIKEFRGNKTREYKKKDAPRLPRILPAGRDVSAFSKLMYALTMFLDGKEINDLLTTLINKFDNIQSFLKVMPLIGVNAKFVEEYAFFKDSAKIADELRLIKSFARMGEPIADARRAMYIDAIRILGTNLSYDELKALADTFSLDENGNKLKKGKHGMRNFIINNVISNKRFHYLIRYGDPAHLHEIAKNEAVVKFVLGRIADIQKKQGQNGKNQIDRYYETCIGK
chain 2: DKGKSVSEKVDALTKIITGMNYDQFDKKRSVIEDTGRENAEREKFKKIISLYLTVIYHILKNIVNINARYVIGFHCVERDAQLYKEKGYDINLKKLEEKGFSSVTKLCAGIDETAPDKRKDVEKEMAERAKESIDSLESANPKLYANYIKYSDEKKAEEFTRQINREKAKTALNAYLRNTKWNVIIREDLLRIDNKTCTLFRNKAVHLEVARYVHAYINDIAEVNSYFQLYHYIMQRIIMNERYEKSSGKVSEYFDAVNDEKKYNDRLLKLLCVPFGYCIPRFKNLSIEALFDRNEAAKFDKEKKKVSGNS
B4: SEQ ID NO: 800: inducible system polypeptide, probably Table 20 (GID-GAI) (protein)
chain: MAPKKKRKVGIHGVPAAKRDHHHHHHQDKKTMMMNEEDDGNGMDELLAVLGYKVRSSEMADVAQKLEQLEVMMSNVQEDDLSQLATETVHYNPAELYTWLDSMLTDLNSGGSGSGSSGGSGTALADTFSLDENGNKLKKGKHGMRNFIINNVISNKRFHYLIRYGDPAHLHEIAKNEAVVKFVLGRIADIQKKQGQNGKNQIDRYYETCIGKDKGKSVSEKVDALTKIITGMNYDQFDKKRSVIEDTGRENAEREKFKKIISLYLTVIYHILKNIVNINARYVIGFHCVERDAQLYKEKGYDINLKKLEEKGFSSVTKLCAGIDETAPDKRKDVEKEMAERAKESIDSLESANPKLYANYIKYSDEKKAEEFTRQINREKAKTALNAYLRNTKWNVIIREDLLRIDNKTCTLFRNKAVHLEVARYVHAYINDIAEVNSYFQLYHYIMQRIIMNERYEKSSGKVSEYFDAVNDEKKYNDRLLKLLCVPFGYCIPRFKNLSIEALFDRNEAAKFDKEKKKVSGNSSGSGPKKKRKV

Key:
[1] = tested on: mCherry expression in HEK293 FT cells; assay: Inducible split RfxCas13d (GIB, RAP, ABA, Dano, GRZ CID domains; NES/NLS variants) mCherry knockdown, leakiness and inducibility; type: cell-based; conditions: inducible polypeptide systems of Tables 18-22
Summary of the method: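 mCherry knockdown in HEK293 FT cells by split RfxCas13d halves fused to GIB, RAP, ABA, Dano or GRZ dimerization domains, scored with and without inducer. Leakiness score and induced activity were derived per split site; NES/NLS compartmentalization and reversed CID orientation were also tested.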

mCherry = mCherry knockdown by inducible split RfxCas13d (ON switch) in transfected HEK 293 FT cells, flow cytometry; type: cell-based; conditions: for performance after NES/NLS compartmentalization: GIB induced split pairs, NES on one moiety, NLS on the other; for knockdown across the various CID systems: split pairs coupled with CID domains, with inducer

Molecule	performance in the tested conditions [1]	induced knockdown (mCherry; Danoprevir-inducible, 2 NESs on N terminal moiety and 2 NLSs on C terminal moiety)	performance after NES/NLS compartmentalization (mCherry)	performance of reversed CID orientation versus original orientation (mCherry; GIB: N ss-GAI/GID-ss C, ABA: N ss-PYL/ABI-ss C)	target knockdown efficiency (mCherry; split pair)	knockdown across the various CID systems (mCherry)
B1	highest performance	–	–	–	–	–
B2	–	over 60%	high inducibility with minimal leakiness	stronger inducibility and weaker leakiness	more than 80%	efficient knockdown; also recorded: consistently strong drug-induced knockdown
B3	–	–	high inducibility with minimal leakiness	–	–	efficient knockdown; also recorded: consistently strong drug-induced knockdown
B4	highest performance	–	–	–	–	–
